Earlier results as cited in PMC3733499 (Thrombosis and haemostasis, 2013).

Assays:
FXa binding to FVa = settings: ref [19]; cited from earlier work
FVa = target: T1, FVa (Homo sapiens, UniProt P07225); settings: ref [19]; cited from earlier work
T1 sequence (P07225 42-676): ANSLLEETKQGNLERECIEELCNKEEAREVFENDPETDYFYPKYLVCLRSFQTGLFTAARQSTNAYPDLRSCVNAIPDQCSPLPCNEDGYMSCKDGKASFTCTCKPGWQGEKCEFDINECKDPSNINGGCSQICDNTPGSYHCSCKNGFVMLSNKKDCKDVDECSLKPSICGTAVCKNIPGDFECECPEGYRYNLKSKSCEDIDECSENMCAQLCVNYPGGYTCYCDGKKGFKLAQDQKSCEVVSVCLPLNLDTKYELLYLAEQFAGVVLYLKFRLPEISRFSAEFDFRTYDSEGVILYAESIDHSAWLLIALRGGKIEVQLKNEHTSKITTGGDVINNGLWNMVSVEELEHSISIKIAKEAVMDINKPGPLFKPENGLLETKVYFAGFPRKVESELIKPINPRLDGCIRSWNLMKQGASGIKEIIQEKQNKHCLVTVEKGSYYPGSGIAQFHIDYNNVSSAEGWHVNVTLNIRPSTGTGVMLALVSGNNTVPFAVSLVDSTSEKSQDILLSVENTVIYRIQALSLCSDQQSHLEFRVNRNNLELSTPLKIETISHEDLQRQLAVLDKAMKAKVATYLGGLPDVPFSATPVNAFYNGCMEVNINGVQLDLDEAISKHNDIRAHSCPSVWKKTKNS

[1] = target: prothrombinase (FXa/FVa/PL) (Homo sapiens, UniProt P00742+P12259); settings: only in the presence of FVa; ref [19]; cited from earlier work
prothrombinase (FXa/FVa/PL), sequence (P12259 29-737 limits assumed): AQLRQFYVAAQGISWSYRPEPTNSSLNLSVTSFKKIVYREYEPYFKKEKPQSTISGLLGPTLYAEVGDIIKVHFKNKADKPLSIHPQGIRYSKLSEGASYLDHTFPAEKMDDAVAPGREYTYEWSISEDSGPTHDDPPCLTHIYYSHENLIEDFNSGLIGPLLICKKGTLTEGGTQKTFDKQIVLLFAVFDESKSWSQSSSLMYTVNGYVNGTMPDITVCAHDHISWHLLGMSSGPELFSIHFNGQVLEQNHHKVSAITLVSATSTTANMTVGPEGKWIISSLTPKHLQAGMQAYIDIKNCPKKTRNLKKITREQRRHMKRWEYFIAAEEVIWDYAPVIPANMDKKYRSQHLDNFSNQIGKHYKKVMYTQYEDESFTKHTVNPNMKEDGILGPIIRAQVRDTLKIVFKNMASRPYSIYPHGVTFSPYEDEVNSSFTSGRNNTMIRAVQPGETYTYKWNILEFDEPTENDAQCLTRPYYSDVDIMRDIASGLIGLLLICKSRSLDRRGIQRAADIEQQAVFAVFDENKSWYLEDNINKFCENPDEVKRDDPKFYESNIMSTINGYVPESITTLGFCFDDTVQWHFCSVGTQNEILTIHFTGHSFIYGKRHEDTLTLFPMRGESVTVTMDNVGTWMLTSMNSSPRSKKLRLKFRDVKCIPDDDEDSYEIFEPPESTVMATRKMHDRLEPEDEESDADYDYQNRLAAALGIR
prothrombinase (FXa/FVa/PL), sequence (P12259 1574-2224 limits assumed): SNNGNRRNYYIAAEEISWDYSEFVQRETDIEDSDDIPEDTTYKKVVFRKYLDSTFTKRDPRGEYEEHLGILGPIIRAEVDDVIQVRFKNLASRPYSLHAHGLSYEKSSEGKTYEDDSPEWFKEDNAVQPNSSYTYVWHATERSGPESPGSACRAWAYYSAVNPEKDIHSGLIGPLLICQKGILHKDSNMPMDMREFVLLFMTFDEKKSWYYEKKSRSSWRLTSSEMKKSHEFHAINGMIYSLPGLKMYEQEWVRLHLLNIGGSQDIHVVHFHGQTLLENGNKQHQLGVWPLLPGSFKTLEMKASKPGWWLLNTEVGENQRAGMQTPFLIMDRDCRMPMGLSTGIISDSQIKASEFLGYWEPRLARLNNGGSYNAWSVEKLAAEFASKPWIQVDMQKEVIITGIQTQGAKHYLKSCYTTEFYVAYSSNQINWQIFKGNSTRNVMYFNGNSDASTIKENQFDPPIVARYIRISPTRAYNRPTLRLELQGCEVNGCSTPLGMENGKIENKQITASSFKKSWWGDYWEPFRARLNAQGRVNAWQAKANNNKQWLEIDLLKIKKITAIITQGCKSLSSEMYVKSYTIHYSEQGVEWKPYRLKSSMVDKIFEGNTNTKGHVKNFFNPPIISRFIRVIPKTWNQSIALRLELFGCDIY
prothrombinase (FXa/FVa/PL), sequence (P00742 41-179 partner limits assumed): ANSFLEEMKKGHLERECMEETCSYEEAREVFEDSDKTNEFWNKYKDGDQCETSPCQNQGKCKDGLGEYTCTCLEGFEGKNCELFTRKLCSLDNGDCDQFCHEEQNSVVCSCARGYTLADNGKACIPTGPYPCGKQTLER
prothrombinase (FXa/FVa/PL), sequence (P00742 235-488 partner limits assumed): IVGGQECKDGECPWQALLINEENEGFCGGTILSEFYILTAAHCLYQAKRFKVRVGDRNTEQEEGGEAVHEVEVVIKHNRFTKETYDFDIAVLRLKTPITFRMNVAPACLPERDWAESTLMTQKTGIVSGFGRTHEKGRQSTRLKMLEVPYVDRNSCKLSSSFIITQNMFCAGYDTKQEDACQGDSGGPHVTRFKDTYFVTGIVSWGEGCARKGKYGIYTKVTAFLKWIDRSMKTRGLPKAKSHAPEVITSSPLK

621–635 peptide: peptide representing PS residues 621–635 near the C-terminus (RAHSCPSVWKKTKNS; UniProt P07225 662-676, looked up, fragment)
Competition with FXa for a binding site on FVa (FXa binding to FVa): appeared to compete with FXa for a binding site on FVa | Inhibition of PS binding to FVa (FVa): inhibited PS binding to FVa | Inhibition of prothrombinase activity [1]: inhibited prothrombinase activity only in the presence of FVa
